Data published in US20110033462A1 (published 2011).
Where two headings read alike, the source gives them in different places.

B1: Fab A3 (Fab, V domains shown)
VH: EVQLLESGAEVKKPGSSVRISCKVSGTPYSSYVMNWVRQAPGQGLEWMGVFVPSLDRALYAQNFQGRLSITADTTTTYMELTSLKFEDTAVYYCATDFSVGWLRPLDRWGQGTLVTVSS
VL: ELQMTQSPSSLSASVGDRVTITCRASQGISNYLAWYQQKPGKAPKLLIYYASRLESGVPSRFSGSGSGTDYTLTISSLQPEDFATYYCQQYNSNPFTFGPGTKVDIKR
B2: Fab E3 (Fab, V domains shown)
VH: EVQLLESGPGLVRPSQTLSLTCAVSGASISGPLSYWTWIRQSPGKKMEHIGSMFYSGNTYYNPSLKGRITMSVDTSRNQFSLNLNSVTVADTAVYFCARRRETELFGLPIDYWGQGILVTVSS
VL: ELTQSPATLSVSPGERATLSCRASERISSSYLSWYQQKPGQAPRLLMYGTSTRATGIPARFSGSGSGTDFTLTISSLQPEDFAVYFCQQDYNLPWTFGQGTKLEIKR
B3: Fab B2 (Fab, V domains shown)
VH: VQLLEQSGSEVKKPGASVKVSCKASGYPFTDYAMSWVRQAPGQGLEYMGWIFTNSGNPTYAPGFAGRFVFSLDISVNTAYLHIDSLKPEDTAVYYCARGIVTPAASGDYFDSWGQGTLVTVSS
VL: ELVLTQSPSSLSASIGDRVTITCRASQHISSWLAWYQQKPGKAPKPLIYAASSLKSGVPSRFSGSGSGTDFTLTISGLQPEDFATYYCQQYENSPVTFGGGTKVEIKR
B4: humanized MAb A3 (antibody, V domains shown)
VH: EVQLLESGAEVKKPGSSVRISCKVSGTPYSSYVMNWVRQAPGQGLEWMGVFVPSLDRALYAQNFQGRLSITADTTTTYMELTSLKFEDTAVYYCATDFSVGWLRPLDRWGQGTLVTVSS
VL: ELQMTQSPSSLSASVGDRVTITCRASQGISNYLAWYQQKPGKAPKLLIYYASRLESGVPSRFSGSGSGTDYTLTISSLQPEDFATYYCQQYNSNPFTFGPGTKVDIKR
B5: humanized MAb B2 (antibody, V domains shown)
VH: VQLLEQSGSEVKKPGASVKVSCKASGYPFTDYAMSWVRQAPGQGLEYMGWIFTNSGNPTYAPGFAGRFVFSLDISVNTAYLHIDSLKPEDTAVYYCARGIVTPAASGDYFDSWGQGTLVTVSS
VL: ELVLTQSPSSLSASIGDRVTITCRASQHISSWLAWYQQKPGKAPKPLIYAASSLKSGVPSRFSGSGSGTDFTLTISGLQPEDFATYYCQQYENSPVTFGGGTKVEIKR
B6: humanized MAb E3 (antibody, V domains shown)
VH: EVQLLESGPGLVRPSQTLSLTCAVSGASISGPLSYWTWIRQSPGKKMEHIGSMFYSGNTYYNPSLKGRITMSVDTSRNQFSLNLNSVTVADTAVYFCARRRETELFGLPIDYWGQGILVTVSS
VL: ELTQSPATLSVSPGERATLSCRASERISSSYLSWYQQKPGQAPRLLMYGTSTRATGIPARFSGSGSGTDFTLTISSLQPEDFAVYFCQQDYNLPWTFGQGTKLEIKR

Key:
DENV-3 (H87) virions = target: T1, DENV-3 (H87) virions (dengue virus type 3, strain H87, UniProt P27915 281-773); experiment: ELISA, virion-coated plate
T1 construct: mature

[1] = target: T2, Langat virus (LGTV) strain TP 21 virions (Langat virus, strain TP 21, UniProt P29837 281-776); experiment: ELISA, virion-coated plate
T2 construct: mature
T2 sequence: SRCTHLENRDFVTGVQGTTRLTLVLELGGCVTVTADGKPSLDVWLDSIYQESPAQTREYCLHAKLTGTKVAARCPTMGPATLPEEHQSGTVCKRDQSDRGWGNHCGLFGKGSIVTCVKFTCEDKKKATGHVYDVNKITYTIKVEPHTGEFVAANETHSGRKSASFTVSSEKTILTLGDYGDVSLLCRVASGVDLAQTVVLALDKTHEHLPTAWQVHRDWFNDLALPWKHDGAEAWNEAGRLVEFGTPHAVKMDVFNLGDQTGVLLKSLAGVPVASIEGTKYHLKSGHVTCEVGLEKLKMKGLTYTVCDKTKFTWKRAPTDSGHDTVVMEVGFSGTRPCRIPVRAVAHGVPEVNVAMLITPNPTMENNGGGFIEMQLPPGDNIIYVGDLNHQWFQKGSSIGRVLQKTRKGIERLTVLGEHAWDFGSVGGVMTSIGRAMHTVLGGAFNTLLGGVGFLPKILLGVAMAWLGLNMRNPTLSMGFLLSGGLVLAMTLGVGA

DENV-4 (814669) virions = target: T3, DENV-4 (814669) virions (dengue virus type 4, strain 814669, UniProt P09866 280-774); experiment: ELISA, virion-coated plate
T3 construct: mature

[2] = target: T4, JEV SA14-14-2 envelope (E) protein on virions (Japanese encephalitis virus strain …, UniProt P0DOH7 295-794); experiment: ELISA, virion-coated plate, Fab from ~100 µg/ml
T4 chain: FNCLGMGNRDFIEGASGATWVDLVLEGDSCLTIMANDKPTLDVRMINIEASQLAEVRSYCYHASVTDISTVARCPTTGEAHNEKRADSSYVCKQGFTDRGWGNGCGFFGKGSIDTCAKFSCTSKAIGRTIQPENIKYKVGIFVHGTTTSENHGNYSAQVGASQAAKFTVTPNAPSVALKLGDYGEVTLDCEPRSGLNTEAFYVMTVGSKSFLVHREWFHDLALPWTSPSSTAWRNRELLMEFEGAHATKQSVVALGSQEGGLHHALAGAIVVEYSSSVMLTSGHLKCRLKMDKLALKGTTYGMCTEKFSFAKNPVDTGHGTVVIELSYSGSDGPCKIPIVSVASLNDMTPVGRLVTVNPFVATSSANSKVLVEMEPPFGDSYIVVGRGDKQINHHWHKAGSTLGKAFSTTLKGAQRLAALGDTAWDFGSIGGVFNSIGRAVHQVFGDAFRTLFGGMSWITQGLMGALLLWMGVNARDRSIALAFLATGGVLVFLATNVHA

[3] = target: T5, recombinant JEV N-terminal 80% E protein (Japanese encephalitis virus strain …, UniProt P0DOH7 295-692); experiment: SPR (Biacore 3000), recombinant E immobilized, Fab in flow
T5 chain: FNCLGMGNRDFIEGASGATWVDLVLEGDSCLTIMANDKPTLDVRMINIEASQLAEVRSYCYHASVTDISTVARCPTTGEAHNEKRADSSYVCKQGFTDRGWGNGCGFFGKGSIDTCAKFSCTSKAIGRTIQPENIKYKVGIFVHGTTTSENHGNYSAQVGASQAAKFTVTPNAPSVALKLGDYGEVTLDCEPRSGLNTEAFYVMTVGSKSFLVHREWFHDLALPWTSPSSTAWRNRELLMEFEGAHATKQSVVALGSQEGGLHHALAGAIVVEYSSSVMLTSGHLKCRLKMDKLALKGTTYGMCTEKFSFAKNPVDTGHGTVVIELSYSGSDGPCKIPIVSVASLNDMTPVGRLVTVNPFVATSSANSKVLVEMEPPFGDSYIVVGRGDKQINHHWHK

[4] = target: T4, JEV SA14-14-2 envelope (E) protein on …; experiment: ELISA on JEV virions captured by HMAF, concentration at half-maximal binding
[5] = target: T4, JEV SA14-14-2 envelope (E) protein on …; experiment: cell-based or functional assay
[6] = target: T4, JEV SA14-14-2 envelope (E) protein on …; experiment: ELISA on JEV virions (FIG. 4A), half maximum binding
[7] = target: T4, JEV SA14-14-2 envelope (E) protein on …; experiment: cell-based or functional assay
[8] = target: T4, JEV SA14-14-2 envelope (E) protein on …; experiment: cell-based or functional assay
[9] = target: T4, JEV SA14-14-2 envelope (E) protein on …; experiment: ELISA on JEV virions
[10] = target: T5, recombinant JEV N-terminal 80% E protein; experiment: SPR, recombinant E immobilized
[11] = target: T4, JEV SA14-14-2 envelope (E) protein on …; experiment: cell-based or functional assay
[12] = target: T4, JEV SA14-14-2 envelope (E) protein on …; experiment: cell-based or functional assay
[13] = target: T4, JEV SA14-14-2 envelope (E) protein on …; experiment: cell-based or functional assay
[14] = target: JEV strain JKT 9092 (genotype IV) E protein on virus (Japanese encephalitis virus, strain JKT …); experiment: cell-based or functional assay
[15] = target: JEV strain Beijing (genotype III) E protein on virus (Japanese encephalitis virus, strain …); experiment: cell-based or functional assay
[16] = target: JEV strain JE 1991 (genotype I) E protein on virus (Japanese encephalitis virus, strain JE …); experiment: cell-based or functional assay
[17] = target: JEV strain JE B 1034/8 (genotype II) E protein on virus (Japanese encephalitis virus, strain JE …); experiment: cell-based or functional assay

T3 sequence (P09866 280-774 limits assumed): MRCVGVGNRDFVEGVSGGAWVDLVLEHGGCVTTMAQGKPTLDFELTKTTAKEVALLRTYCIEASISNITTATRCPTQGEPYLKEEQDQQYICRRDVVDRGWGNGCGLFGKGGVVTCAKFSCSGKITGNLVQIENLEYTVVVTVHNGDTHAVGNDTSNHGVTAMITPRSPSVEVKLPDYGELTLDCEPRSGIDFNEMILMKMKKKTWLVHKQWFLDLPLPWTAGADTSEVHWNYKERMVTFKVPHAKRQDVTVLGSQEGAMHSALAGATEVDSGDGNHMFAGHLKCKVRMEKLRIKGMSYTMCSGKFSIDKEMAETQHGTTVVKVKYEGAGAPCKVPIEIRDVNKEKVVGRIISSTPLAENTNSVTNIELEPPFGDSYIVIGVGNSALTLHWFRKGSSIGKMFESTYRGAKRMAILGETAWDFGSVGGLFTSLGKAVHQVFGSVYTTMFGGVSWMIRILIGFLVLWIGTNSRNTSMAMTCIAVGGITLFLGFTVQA

| Binder | ELISA titer (1/log10 dilution) (DENV-3 (H87) virions) | binding result (DENV-3 (H87) virions) | binding result [1] | ELISA titer (1/log10 dilution) (DENV-4 (814669) virions) | binding result (DENV-4 (814669) virions) | ELISA titer (1/log10 dilution) [2] | Kd [3] | koff [3] | kon [3] | Kd [4] | PRNT50 titer [5] | EC50 [6] | PRNT50 titer [7] | PRNT50 [8] | PRNT50 [11] | PRNT50 (µg/ml) of MAb 1 alone [12] | occupancy of accessible antibody sites on the virion at neutralization [13] | PRNT50 titer [14] | PRNT50 titer [15] | PRNT50 titer [16] | further results |
| --- | --- | --- | --- | --- | --- | --- | --- | --- | --- | --- | --- | --- | --- | --- | --- | --- | --- | --- | --- | --- | --- |
| B1 | < 1 log10 reciprocal dilution | no binding | no binding | < 1 log10 reciprocal dilution | no binding | 4.7 log10 reciprocal dilution | 0.72 nM | 2.8e-05 s⁻¹ | 40000 M⁻¹ s⁻¹ | 0.45 nM | 2.55 nM | ~10 nM | 2.55 nM | 2.55 nM | – | – | – | – | – | – | – |
| B2 | < 1 log10 reciprocal dilution | no binding | no binding | < 1 log10 reciprocal dilution | no binding | 4.2 log10 reciprocal dilution | 0.35 nM | 3.6e-05 s⁻¹ | 100000 M⁻¹ s⁻¹ | 0.98 nM | 84.9 nM | ~100 nM | 84.9 nM | 84.9 nM | – | – | – | – | – | – | – |
| B3 | < 1 log10 reciprocal dilution | no binding | no binding | < 1 log10 reciprocal dilution | no binding | 4.2 log10 reciprocal dilution | 110 nM | 0.0046 s⁻¹ | 42000 M⁻¹ s⁻¹ | 0.28 nM | 0.25 nM | ~0.5 nM | 0.25 nM | 0.25 nM | – | – | – | – | – | – | Kd [9]: 0.15 nM; fold faster off-rate than Fab A3 or E3 [10]: > 120 fold; fold weaker Kd than Fab A3 or E3 [10]: > 150 fold |
| B4 | – | – | – | – | – | – | – | – | – | 0.15 nM | – | – | 0.2 nM | – | 0.04 µg/mL | 0.04 µg/mL | 45% | 0.07 nM | 0.2 nM | 0.04 nM | PRNT50 titer [17]: 0.04 nM |
| B5 | – | – | – | – | – | – | – | – | – | 0.08 nM | – | – | 0.03 nM | – | 0.005 µg/mL | 0.005 µg/mL | ~28% | 2 nM | 0.02 nM | 0.02 nM | PRNT50 titer [17]: 0.02 nM |
| B6 | – | – | – | – | – | – | – | – | – | 0.31 nM | – | – | 0.93 nM | – | 0.09 µg/mL | 0.09 µg/mL | 66% | 0.36 nM | 0.71 nM | 0.21 nM | PRNT50 titer [17]: 0.14 nM |
